Measurements published in PMC9133142 (Cell chemical biology, 2022).

B1: mAb ZV-67 (antibody, V domains shown)
VH: QAQLQQSGTGLARPGASVKLSCKASGYTFTSYGISWVTQRAGQGLEWIGVIYPRSGNTYYNEKFRGKATLTADKSSSSAYMELRGLTAEDSAVYFCARENYGSVYWGQGTTLTVSS
VL: DIVMTQSQKFMSTSVGDRVSITCKASQNVGTAVAWYQQKPGQSPKLLIYSASNRYTGVPDRFTGSGSGTDFTLTISNMQSEDLADYFCQQFSSYPYTFGGGTKLEIK
B2: mAb ZV-2 (antibody, V domains shown)
VH: QVQLQESGAELMKPGASVKLSCKTSGYTFIGYWIEWLKQRPGHGLEWVGEIFPGSGRTKYNEKFKGRATFTADTSSNMAYMQLSSLTTEDSAIYYCARYYYGSYYALDYWGQGTSVTVSS
VL: DIVMTQSPSSLSVSAGEKVTLSCKSSQSLLHSGNQKNYLAWYQQKPGQAPKLLIYGASTRESGVPDRFTGSGSGTDFTLTISSVQAEDLAVYYCQNDHSYPLTFGAGTKLELK

Key:
[1] = biological target: MBP alone (negative control in BLI) (Escherichia coli K12, UniProt P0AEX9 = MBP); test: BLI
[2] = biological target: ZDIII-WT as used in BLI (taken as the His6-MBP-ZDIII-WT fusion protein) (Zika virus H/PF/2013, UniProt A0A024B7W1); test: BLI
Chain of UniProt A0A024B7W1 (A0A024B7W1 whole entry, looked up, the tested form may be a part): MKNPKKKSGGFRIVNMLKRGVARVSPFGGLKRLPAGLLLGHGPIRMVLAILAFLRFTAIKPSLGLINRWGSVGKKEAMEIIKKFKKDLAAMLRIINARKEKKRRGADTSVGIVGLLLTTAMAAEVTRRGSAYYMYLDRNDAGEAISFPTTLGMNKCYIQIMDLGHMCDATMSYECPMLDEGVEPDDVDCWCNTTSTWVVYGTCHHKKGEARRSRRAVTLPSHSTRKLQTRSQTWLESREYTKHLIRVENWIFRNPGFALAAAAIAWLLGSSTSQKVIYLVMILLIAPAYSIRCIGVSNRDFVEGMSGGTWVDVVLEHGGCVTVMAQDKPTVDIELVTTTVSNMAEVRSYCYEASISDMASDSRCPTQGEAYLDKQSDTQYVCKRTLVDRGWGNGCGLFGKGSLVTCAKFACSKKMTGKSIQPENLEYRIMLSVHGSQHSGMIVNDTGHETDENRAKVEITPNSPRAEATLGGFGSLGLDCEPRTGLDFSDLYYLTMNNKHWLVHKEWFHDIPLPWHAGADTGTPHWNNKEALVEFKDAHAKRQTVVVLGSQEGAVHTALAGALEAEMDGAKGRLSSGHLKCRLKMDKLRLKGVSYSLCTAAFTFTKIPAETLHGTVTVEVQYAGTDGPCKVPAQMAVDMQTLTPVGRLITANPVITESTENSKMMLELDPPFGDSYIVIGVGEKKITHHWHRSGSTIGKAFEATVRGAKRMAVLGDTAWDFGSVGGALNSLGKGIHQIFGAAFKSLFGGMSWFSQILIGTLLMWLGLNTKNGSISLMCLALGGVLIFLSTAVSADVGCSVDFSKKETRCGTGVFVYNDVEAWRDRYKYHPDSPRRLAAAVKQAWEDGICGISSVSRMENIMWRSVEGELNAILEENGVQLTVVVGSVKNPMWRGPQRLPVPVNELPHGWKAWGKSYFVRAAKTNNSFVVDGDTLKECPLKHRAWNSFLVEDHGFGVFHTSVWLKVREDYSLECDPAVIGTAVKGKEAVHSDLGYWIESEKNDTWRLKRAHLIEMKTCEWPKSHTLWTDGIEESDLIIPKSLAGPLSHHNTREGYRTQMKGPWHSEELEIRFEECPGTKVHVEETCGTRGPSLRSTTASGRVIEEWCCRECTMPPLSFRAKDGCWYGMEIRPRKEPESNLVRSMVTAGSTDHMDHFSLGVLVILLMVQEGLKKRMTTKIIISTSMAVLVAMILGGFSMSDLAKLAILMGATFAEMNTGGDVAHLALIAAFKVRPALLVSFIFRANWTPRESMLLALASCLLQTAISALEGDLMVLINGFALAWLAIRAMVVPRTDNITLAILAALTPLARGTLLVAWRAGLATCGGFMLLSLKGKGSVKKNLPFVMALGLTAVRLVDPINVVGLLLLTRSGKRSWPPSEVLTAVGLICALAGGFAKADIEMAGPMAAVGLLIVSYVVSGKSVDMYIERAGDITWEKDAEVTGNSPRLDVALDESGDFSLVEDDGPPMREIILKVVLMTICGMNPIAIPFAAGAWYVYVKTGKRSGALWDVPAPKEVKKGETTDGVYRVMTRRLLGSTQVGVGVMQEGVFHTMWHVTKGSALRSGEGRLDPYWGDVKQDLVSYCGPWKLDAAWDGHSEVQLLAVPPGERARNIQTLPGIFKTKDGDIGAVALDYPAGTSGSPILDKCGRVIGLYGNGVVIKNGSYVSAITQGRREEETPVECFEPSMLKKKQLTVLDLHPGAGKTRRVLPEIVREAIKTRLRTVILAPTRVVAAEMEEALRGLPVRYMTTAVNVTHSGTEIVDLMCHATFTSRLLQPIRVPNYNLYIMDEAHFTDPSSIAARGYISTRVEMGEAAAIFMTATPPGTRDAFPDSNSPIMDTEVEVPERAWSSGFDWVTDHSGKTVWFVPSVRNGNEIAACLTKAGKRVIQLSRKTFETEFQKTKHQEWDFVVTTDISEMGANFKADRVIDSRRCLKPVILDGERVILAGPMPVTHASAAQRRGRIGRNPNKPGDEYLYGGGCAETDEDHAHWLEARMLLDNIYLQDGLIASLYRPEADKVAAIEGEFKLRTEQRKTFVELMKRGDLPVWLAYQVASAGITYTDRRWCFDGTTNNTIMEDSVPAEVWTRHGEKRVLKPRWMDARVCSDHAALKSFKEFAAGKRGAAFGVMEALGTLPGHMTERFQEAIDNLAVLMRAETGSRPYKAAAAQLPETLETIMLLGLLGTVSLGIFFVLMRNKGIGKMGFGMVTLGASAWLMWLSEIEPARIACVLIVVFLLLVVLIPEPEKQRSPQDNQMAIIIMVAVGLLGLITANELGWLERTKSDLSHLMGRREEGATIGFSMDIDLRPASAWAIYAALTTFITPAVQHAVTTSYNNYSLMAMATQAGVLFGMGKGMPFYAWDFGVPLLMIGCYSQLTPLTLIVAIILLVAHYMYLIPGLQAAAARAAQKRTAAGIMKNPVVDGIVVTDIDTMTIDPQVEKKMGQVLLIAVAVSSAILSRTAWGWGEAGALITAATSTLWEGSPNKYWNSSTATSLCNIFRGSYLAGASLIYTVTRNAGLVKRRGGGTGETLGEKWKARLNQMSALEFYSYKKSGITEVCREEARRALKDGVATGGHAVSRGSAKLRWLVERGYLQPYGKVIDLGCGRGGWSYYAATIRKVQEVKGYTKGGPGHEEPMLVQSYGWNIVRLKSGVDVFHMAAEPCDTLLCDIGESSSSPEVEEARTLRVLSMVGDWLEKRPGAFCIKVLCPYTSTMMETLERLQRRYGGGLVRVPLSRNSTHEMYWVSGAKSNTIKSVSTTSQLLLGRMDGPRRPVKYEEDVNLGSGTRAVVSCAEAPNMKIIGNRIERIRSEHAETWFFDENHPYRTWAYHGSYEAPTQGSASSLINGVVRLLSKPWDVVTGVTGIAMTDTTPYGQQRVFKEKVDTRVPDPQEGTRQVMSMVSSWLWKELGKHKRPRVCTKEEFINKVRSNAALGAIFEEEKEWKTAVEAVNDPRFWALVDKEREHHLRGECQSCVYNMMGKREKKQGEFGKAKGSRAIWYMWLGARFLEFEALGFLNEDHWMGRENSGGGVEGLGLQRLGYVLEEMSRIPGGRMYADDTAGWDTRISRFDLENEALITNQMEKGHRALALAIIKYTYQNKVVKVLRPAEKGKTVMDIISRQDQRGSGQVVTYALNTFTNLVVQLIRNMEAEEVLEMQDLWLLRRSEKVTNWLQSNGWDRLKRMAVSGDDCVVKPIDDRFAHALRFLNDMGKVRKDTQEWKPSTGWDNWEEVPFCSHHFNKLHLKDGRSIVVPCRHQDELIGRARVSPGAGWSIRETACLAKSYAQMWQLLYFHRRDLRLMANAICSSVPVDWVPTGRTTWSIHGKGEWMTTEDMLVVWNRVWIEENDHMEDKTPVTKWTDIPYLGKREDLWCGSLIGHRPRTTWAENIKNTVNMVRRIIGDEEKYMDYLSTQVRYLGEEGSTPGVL

[3] = biological target: ZDIII-WT, soluble purified protein with C-terminal SpyTag (Zika virus H/PF/2013, UniProt A0A024B7W1); test: ELISA

Binder	binding result [1]	Kd [2]	EC50 [3]
B1	no binding	43 ± 1.1 nM	14 nM
B2	no binding	10.7 ± 0.09 nM	
